B1: TPD52L2 (parent)
chain: EAEEEELRAELTKVEEEIVTLRQV
B2: ZBTB22 (parent)
chain: FSSSSQEAFAASAVGSGERRGGGP

Variants of: B1
Experiment: protein stability index of a GFP-peptide fusion (GPS, HEK-293T) (PSI 1-6); higher = more stable
Details: c terminus: a fixed tail appended
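Further: lentivirally expressed fusions sorted by FACS into six bins by GFP to DsRed ratio, PSI derived from sequencing read proportions per bin multiplied by bin number.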

Point of comparison: EAEEEELRAELTKVEEEIVTNRQV [L21N], protein stability index 5.73. Against it:
- EAEEEELRAELTKVEEEIVGLRQV [T20G] — lower, 3.86
- EAEEEELRAELTKVEEEIVHLRQV [T20H] — lower, 3.56
- EAEEEELRAELTKVEEEIVILRQV [T20I] — lower, 3.06
- EAEEEELRAELTKVEEEIVKLRQV [T20K] — lower, 3.44
- EAEEEELRAELTKVEEEIVLLRQV [T20L] — lower, 2.91
- EAEEEELRAELTKVEEEIVMLRQV [T20M] — lower, 2.92
- EAEEEELRAELTKVEEEIVNLRQV [T20N] — lower, 3.34
- EAEEEELRAELTKVEEEIVPLRQV [T20P] — lower, 4.98
- EAEEEELRAELTKVEEEIVQLRQV [T20Q] — lower, 4.04
- EAEEEELRAELTKVEEEIVRLRQV [T20R] — lower, 3.3
- EAEEEELRAELTKVEEEIVSLRQV [T20S] — lower, 3.56
- EAEEEELRAELTKVEEEIVVLRQV [T20V] — lower, 3.92
- EAEEEELRAELTKVEEEIVWLRQV [T20W] — lower, 2.99
- EAEEEELRAELTKVEEEIVYLRQV [T20Y] — lower, 2.77
- EAEEEELRAELTKVEEEIVTARQV [L21A] — lower, 4.96
- EAEEEELRAELTKVEEEIVTCRQV [L21C] — lower, 4.72
- EAEEEELRAELTKVEEEIVTDRQV [L21D] — the same, 5.73
- EAEEEELRAELTKVEEEIVTERQV [L21E] — lower, 5.4
- EAEEEELRAELTKVEEEIVTFRQV [L21F] — lower, 4.09
- EAEEEELRAELTKVEEEIVTGRQV [L21G] — lower, 5.24
- EAEEEELRAELTKVEEEIVTHRQV [L21H] — lower, 4.08
- EAEEEELRAELTKVEEEIVTIRQV [L21I] — lower, 4.25
- EAEEEELRAELTKVEEEIVTKRQV [L21K] — higher, 5.86
- EAEEEELRAELTKVEEEIVTMRQV [L21M] — lower, 4.72
- EAEEEELRAELTKVEEEIVTPRQV [L21P] — lower, 5.57
- EAEEEELRAELTKVEEEIVTQRQV [L21Q] — lower, 5.13
- EAEEEELRAELTKVEEEIVTRRQV [L21R] — lower, 5.56
- EAEEEELRAELTKVEEEIVTSRQV [L21S] — lower, 5.68
- EAEEEELRAELTKVEEEIVTTRQV [L21T] — lower, 5.65
- EAEEEELRAELTKVEEEIVTVRQV [L21V] — lower, 5.22
- EAEEEELRAELTKVEEEIVTWRQV [L21W] — lower, 3.63
- EAEEEELRAELTKVEEEIVTYRQV [L21Y] — lower, 3.34
- EAEEEELRAELTKVEEEIVTLAQV [R22A] — lower, 4.54
- EAEEEELRAELTKVEEEIVTLCQV [R22C] — lower, 3.66
- EAEEEELRAELTKVEEEIVTLDQV [R22D] — lower, 3.54
- EAEEEELRAELTKVEEEIVTLEQV [R22E] — lower, 4.25
- EAEEEELRAELTKVEEEIVTLFQV [R22F] — lower, 2.33
- EAEEEELRAELTKVEEEIVTLGQV [R22G] — lower, 3.79
- EAEEEELRAELTKVEEEIVTLHQV [R22H] — lower, 3.96
- EAEEEELRAELTKVEEEIVTLIQV [R22I] — lower, 2.44
- EAEEEELRAELTKVEEEIVTLKQV [R22K] — lower, 3.8
- EAEEEELRAELTKVEEEIVTLLQV [R22L] — lower, 3.06
- EAEEEELRAELTKVEEEIVTLMQV [R22M] — lower, 3.17
- EAEEEELRAELTKVEEEIVTLNQV [R22N] — lower, 3.9
- EAEEEELRAELTKVEEEIVTLPQV [R22P] — lower, 4.85
- EAEEEELRAELTKVEEEIVTLQQV [R22Q] — lower, 3.77
- EAEEEELRAELTKVEEEIVTLSQV [R22S] — lower, 4.37
- EAEEEELRAELTKVEEEIVTLTQV [R22T] — lower, 4.18
- EAEEEELRAELTKVEEEIVTLVQV [R22V] — lower, 3.4
- EAEEEELRAELTKVEEEIVTLWQV [R22W] — lower, 2.92
- EAEEEELRAELTKVEEEIVTLYQV [R22Y] — lower, 2.54
- EAEEEELRAELTKVEEEIVTLRAV [Q23A] — lower, 3.56
- EAEEEELRAELTKVEEEIVTLRCV [Q23C] — lower, 3.9
- EAEEEELRAELTKVEEEIVTLRDV [Q23D] — lower, 4.43
- EAEEEELRAELTKVEEEIVTLREV [Q23E] — lower, 3.82
- EAEEEELRAELTKVEEEIVTLRFV [Q23F] — lower, 3.19
- EAEEEELRAELTKVEEEIVTLRGV [Q23G] — lower, 4.54
- EAEEEELRAELTKVEEEIVTLRHV [Q23H] — lower, 3.6
- EAEEEELRAELTKVEEEIVTLRIV [Q23I] — lower, 2.98
- EAEEEELRAELTKVEEEIVTLRKV [Q23K] — lower, 4.04
- EAEEEELRAELTKVEEEIVTLRLV [Q23L] — lower, 3.25
- EAEEEELRAELTKVEEEIVTLRMV [Q23M] — lower, 3.65
- EAEEEELRAELTKVEEEIVTLRNV [Q23N] — lower, 4.21
- EAEEEELRAELTKVEEEIVTLRPV [Q23P] — lower, 4.58
- EAEEEELRAELTKVEEEIVTLRRV [Q23R] — lower, 3.73
- EAEEEELRAELTKVEEEIVTLRSV [Q23S] — lower, 3.61
- EAEEEELRAELTKVEEEIVTLRTV [Q23T] — lower, 4.06
- EAEEEELRAELTKVEEEIVTLRVV [Q23V] — lower, 3.11
- EAEEEELRAELTKVEEEIVTLRWV [Q23W] — lower, 4.35
- EAEEEELRAELTKVEEEIVTLRYV [Q23Y] — lower, 5.02
- EAEEEELRAELTKVEEEIVTLRQA [V24A] — lower, 4.41
- EAEEEELRAELTKVEEEIVTLRQC [V24C] — lower, 3.63
- EAEEEELRAELTKVEEEIVTLRQD [V24D] — lower, 5.2
- EAEEEELRAELTKVEEEIVTLRQE [V24E] — lower, 4.35
- EAEEEELRAELTKVEEEIVTLRQF [V24F] — lower, 3.25
- EAEEEELRAELTKVEEEIVTLRQG [V24G] — lower, 3.41
- EAEEEELRAELTKVEEEIVTLRQH [V24H] — lower, 3.92
- EAEEEELRAELTKVEEEIVTLRQI [V24I] — lower, 4.13
- EAEEEELRAELTKVEEEIVTLRQK [V24K] — lower, 4.87
- EAEEEELRAELTKVEEEIVTLRQL [V24L] — lower, 3.78
- EAEEEELRAELTKVEEEIVTLRQM [V24M] — lower, 3.42
- EAEEEELRAELTKVEEEIVTLRQN [V24N] — lower, 4.72
- EAEEEELRAELTKVEEEIVTLRQP [V24P] — lower, 4.65
- EAEEEELRAELTKVEEEIVTLRQQ [V24Q] — lower, 4.14
- EAEEEELRAELTKVEEEIVTLRQR [V24R] — lower, 4.39
- EAEEEELRAELTKVEEEIVTLRQS [V24S] — lower, 4.52
- EAEEEELRAELTKVEEEIVTLRQT [V24T] — lower, 4.39
- EAEEEELRAELTKVEEEIVTLRQW [V24W] — lower, 3.89
- EAEEEELRAELTKVEEEIVTLRQY [V24Y] — lower, 3.83

Variants of: B2
Experiment: as above
Details: c terminus: a fixed tail appended

Point of comparison: FSSSSQEAFAASAVGSGERRGGGT [P24T], protein stability index 3.07. Against it:
- FSSSSQEAFAASAVGSSERRGGGP [G17S] — higher, 3.39
- FSSSSQSAFAASAVGSGERRGGGP [E7S] — lower, 2.57
- FSSSSQEAFAASAVGSGERRGFGP [G22F] — lower, 2.96

From the supplement of paper PMC10567573
